Results on 18 sequences are retold here after the supplement of paper PMC12764529.

± gives the half width of the 95% confidence interval.

Series [1] in a line: folding stability dG unfold from trypsin proteolysis; higher = more stable. In outline: (§1)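 Designed mini-proteins with no cysteine and under 80 residues were kept only if AlphaFold2 dimer inter-PAE was above 15. In a PA-tagged cDNA display construct, they were digested with trypsin and chymotrypsin and then sequenced. K50 was inferred by Bayesian fitting of counts, and unfolding free energy was derived per protease or combined against a sequence-predicted unfolded-state K50 and a shared folded-state K50.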

Series [2] in a line: folding stability dG unfold from chymotrypsin proteolysis; higher = more stable. The essentials:
as §1

Series [3] in a line: folding stability dG unfold (combined trypsin and chymotrypsin); higher = more stable. In outline: as §1

For the sequence “SAGGMKVYKTPDKITIELTHPETGEKAKGTYTPSTGKMTITYPNKLTVTISVDSNGNLTPVEKKPLLSAGGS [r16_127_JUSTAS]”, the “folding stability dG unfold” value in series [1] is 0.592 ± 0.046 kcal/mol; in series [2], 0.577 ± 0.1 kcal/mol; in series [3], 0.626 ± 0.069 kcal/mol.
For “SAGGMKYLIKIEVDGKEIEIEAESLEEAEELAKKLEEEGIEIEVKKIEIYELPEEEEEEEEEKKKKESAGGS [r8_336_TrROS_Hall]”, the “folding stability dG unfold” value in series [1] was 0.249 ± 0.11 kcal/mol; in series [2], 2.24 ± 0.08 kcal/mol; in series [3], 1.85 ± 0.21 kcal/mol.
With “SAGGMKYVLKIEITFKKPSGPPEKKIILVEFDPDFPDIPLEEAAERVLNEIAPKYGDEAKVSEISPVSAGGS [r8_101_TrMRF]”, the “folding stability dG unfold” value in series [1] was found to be 1.3 ± 0.054 kcal/mol; in series [2] it was 2.35 ± 0.066 kcal/mol; in series [3], 2 ± 0.13 kcal/mol.
Take “SAGGMLIVRITVDLTFPVIHPDNRPSLVSVPLPITLPFSTPEEARAFAEALSKLFDAPVSLEVLPPDGSAGG [r13_320_TrMRF]”: the “folding stability dG unfold” value in series [1] turned out to be 3.62 ± 0.13 kcal/mol; in series [2], 4.4 ± 0.094 kcal/mol; in series [3] it was 4.16 ± 0.12 kcal/mol.
The matching figures for “SAGGMLKFTDPKTGNEYTVTEYDPNTGVYLVTTTYPDGTTTTREFPGSLEDIVKHLEEEGYPTTVVGSAGGS [r16_748_JUSTAS]”: 2.83 ± 0.12 kcal/mol, 3.38 ± 0.1 kcal/mol and 3.24 ± 0.069 kcal/mol.
Take “SAGGMLKIKVELFYPDGSTRTLPVPEEIQKEIVEALKKGEKIPEKPKKELEDIAKKEGYTIKIIELLSAGGS [r8_159_JUSTAS]”: the “folding stability dG unfold” value in series [1] turned out to be 0.751 ± 0.051 kcal/mol; in series [2], 1.41 ± 0.11 kcal/mol; in series [3], 1.3 ± 0.18 kcal/mol.
As to “SAGGMLLVEAPDGTTVEVTPEQAADLTPGAVVRHPSGDVWTYNPANDETVRIPWVSPAEVERAVAELSSAGG [r13_962_JUSTAS]”, the “folding stability dG unfold” value was -0.0974 ± 0.038 kcal/mol in series [1], -0.361 ± 0.12 kcal/mol in series [2] and -0.132 ± 0.043 kcal/mol in series [3].
Take “SAGGMLPDTLKLAREIAKELGINRIEPLESGEVVLYLPEDKVIVIDTINGIPRVRIYNKDEWIEIPISAGGS [r16_296_TrMRF]”: the “folding stability dG unfold” value in series [1] was 3.65 ± 0.096 kcal/mol; in series [2], 4.56 ± 0.08 kcal/mol; in series [3] it was 4.26 ± 0.15 kcal/mol.
With “SAGGMLVRVRFRIVEPGTGEPFEFEALLFFGEDGSFELVFPDGTRLLFPPEARIEVLDAELLDPDEASAGGS [r16_223_TrMRF]”, the “folding stability dG unfold” value turned out to be 3.96 ± 0.19 kcal/mol in series [1], 4.9 ± 0.11 kcal/mol in series [2] and 4.61 ± 0.2 kcal/mol in series [3].
The matching figures for “SAGGMLVTFTTPDGKTVTVEVDSLEEAKKVIAEKLGLPPDTVLDVTVTDPVTGEVTSETVTIPVPVPESAGG [r13_145_JUSTAS]”: 3.3 ± 0.09 kcal/mol, 3.99 ± 0.07 kcal/mol and 3.96 ± 0.049 kcal/mol.
The matching figures for “SAGGMMKIRIEVENPKGEKKEIELSEEELERIKEALKEGKVLTEEELKKLIELAKEKGYKVKIVEIESAGGS [r8_159_TrROS_Hall]”: 0.447 ± 0.077 kcal/mol, 2.37 ± 0.074 kcal/mol and 2.09 ± 0.24 kcal/mol.
In the case of “SAGGMMTLKITIVDEDGNEITIEVEMSIEELEELIKELFPGKKVKVVSVEEEPVEPGLVKVTIKIEKESAGG [r13_832_TrROS_Hall]”, the “folding stability dG unfold” value in series [1] came to 3.6 ± 0.12 kcal/mol; in series [2], 5.01 ± 0.16 kcal/mol; in series [3] it was 4.96 ± 0.33 kcal/mol.
Regarding “SAGGMNLMIKIENNGEPITFMINSPEDAEEIASNLPELGYPIEVKKLEPQRNEDGNPMVMVEIRIKPSAGGS [r8_336_TrROS]”, the “folding stability dG unfold” value in series [1] stood at 0.763 ± 0.14 kcal/mol; in series [2], 1.63 ± 0.15 kcal/mol; in series [3], 1.21 ± 0.23 kcal/mol.
Regarding “SAGGMPEEELTLIVRIKVYNPETGEEKEITLTITVKSEEELEKAKKLVEELEEKLKELGIKKVEIEILSAGG [r13_360_TrROS_Hall]”, the “folding stability dG unfold” value in series [1] was 2.92 ± 0.25 kcal/mol; in series [2], 3.37 ± 0.097 kcal/mol; in series [3], 3.2 ± 0.26 kcal/mol.
With “SAGGMPGEVVDISDVPPGATLYDPEGKSYGPVVDVRVTVGPDSVEITITFPDGTTRTITAPRDKIYILPSAG [r5_850_JUSTAS]”, the “folding stability dG unfold” value in series [1] turned out to be 1.83 ± 0.083 kcal/mol; in series [2], 1.24 ± 0.065 kcal/mol; in series [3], 1.59 ± 0.14 kcal/mol.
The like results for “SAGGMPGIRPVLRIRARVRFRGPEREEEIEIELHPEALEAGLTAEELARLRAEELGYEVEIEEIEIESAGGS [r16_554_TrMRF]” were, in that order, 1.26 ± 0.097 kcal/mol, 2.01 ± 0.068 kcal/mol and 1.84 ± 0.1 kcal/mol.
Consider “SAGGMPKDAPTTDLTITEIVTEPDPNSDTYIARVTTRLPDGTEIVYTLPIPADTTEEEVVERAKELLSSAGG [r13_578_JUSTAS]”, for which the “folding stability dG unfold” value in series [1] stood at 1.78 ± 0.035 kcal/mol; in series [2], 2.307 ± 0.018 kcal/mol; in series [3], 2.12 ± 0.077 kcal/mol.
“SAGGMPKVPVTYTVTFTLKPDGSTLTVTETFPVPEPGKPVTKEEIKQRLLDKLPPSYTITSITITRASAGGS [r16_407_JUSTAS]”: the “folding stability dG unfold” value in series [1] is 1.86 ± 0.03 kcal/mol; in series [2] it was 2.21 ± 0.026 kcal/mol; in series [3], 2.13 ± 0.051 kcal/mol.
